System: peptide library, one residue held at a place counted from the S/T acceptor
Test: relative phosphorylation of the sub-library (ratio to the mean residue at this position); higher = residue favoured
Method in brief: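 In 384-well plates, purified recombinant kinases (human or orthologue constructs) were incubated for 90 min under kinase-specific conditions with 50 μM biotinylated degenerate peptide sub-libraries and 50 μM ATP spiked with γ-32P-ATP. Each sub-library fixed a single residue at one position around a central Ser/Thr. Relative sub-library phosphorylation, measured by phosphorimaging and densitometry of streptavidin membrane spots, is given as a ratio to the mean residue at that position.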

Sequence of ERN1, construct: aa468-end, human (O75460 468-977, looked up): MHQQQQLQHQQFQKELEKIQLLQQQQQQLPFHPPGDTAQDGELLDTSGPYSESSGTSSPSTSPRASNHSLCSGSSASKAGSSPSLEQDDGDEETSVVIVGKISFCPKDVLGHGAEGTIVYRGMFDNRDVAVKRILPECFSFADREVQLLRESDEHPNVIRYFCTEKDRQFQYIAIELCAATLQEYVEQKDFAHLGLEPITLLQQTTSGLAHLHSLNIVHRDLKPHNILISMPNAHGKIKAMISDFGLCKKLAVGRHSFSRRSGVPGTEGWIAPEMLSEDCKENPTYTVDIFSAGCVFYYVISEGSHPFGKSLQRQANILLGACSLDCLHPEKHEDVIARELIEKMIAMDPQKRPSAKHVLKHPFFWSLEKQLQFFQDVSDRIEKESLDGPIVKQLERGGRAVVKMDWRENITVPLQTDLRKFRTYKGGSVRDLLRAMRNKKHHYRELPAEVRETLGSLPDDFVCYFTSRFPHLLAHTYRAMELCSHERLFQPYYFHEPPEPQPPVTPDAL
Sequence of GRK1, construct: Full length, human (Q15835 whole entry, looked up): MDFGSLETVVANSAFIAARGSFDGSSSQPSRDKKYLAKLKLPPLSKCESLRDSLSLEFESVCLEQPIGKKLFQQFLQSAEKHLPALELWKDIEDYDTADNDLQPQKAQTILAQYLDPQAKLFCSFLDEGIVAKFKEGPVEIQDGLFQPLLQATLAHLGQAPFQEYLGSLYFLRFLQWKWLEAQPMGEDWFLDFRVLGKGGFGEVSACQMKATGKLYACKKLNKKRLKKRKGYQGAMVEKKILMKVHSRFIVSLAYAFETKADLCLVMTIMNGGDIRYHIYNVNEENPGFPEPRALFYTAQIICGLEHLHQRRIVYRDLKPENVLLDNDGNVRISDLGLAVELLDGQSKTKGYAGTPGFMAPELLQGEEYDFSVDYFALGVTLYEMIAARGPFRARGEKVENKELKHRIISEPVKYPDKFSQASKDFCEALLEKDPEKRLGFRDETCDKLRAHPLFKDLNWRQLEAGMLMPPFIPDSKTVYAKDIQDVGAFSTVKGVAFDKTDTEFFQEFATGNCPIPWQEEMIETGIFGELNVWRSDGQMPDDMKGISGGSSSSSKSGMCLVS

ERN1, construct: aa468-end, human (from UniProt O75460)
relative phosphorylation
Conditions	at +1	at +2	at +3	at +4	at -1	at -2	at -3	at -4	at -5
A fixed	0.993	0.597	0.656	0.755	1.28	1.07	1.06	1.11	1.07
D fixed	0.229	0.173	0.375	0.276	0.33	0.672	0.705	0.813	0.747
E fixed	0.263	0.158	0.201	0.26	0.373	0.869	0.801	0.831	0.781
F fixed	0.67	0.858	1.32	1.07	0.966	1.13	0.781	0.708	0.873
G fixed	1.15	0.662	0.791	0.892	0.804	1.26	1.59	1.29	1.25
H fixed	0.835	1.9	1.31	1.03	1.75	1.03	1.03	0.948	1.07
I fixed	0.632	1.08	0.76	0.849	0.562	0.794	0.906	0.949	1.04
K fixed	2.21	1.7	1.45	2.02	1.89	1.14	1.2	1.48	1.49
L fixed	0.643	1.21	0.973	0.766	0.658	0.857	0.854	0.87	0.97
M fixed	1.03	1.14	0.85	0.929	0.937	0.9	0.818	0.937	0.871
N fixed	1.14	0.559	0.793	0.795	0.844	0.933	0.926	1.03	0.956
P fixed	0.258	0.347	0.525	0.851	0.833	1.43	1.08	0.981	0.909
Q fixed	1.2	0.65	0.683	0.912	0.986	0.958	0.833	0.878	0.822
R fixed	3.41	2.73	3.08	2.09	1.86	1.29	1.77	1.45	1.28
V fixed	0.78	1.19	0.726	0.85	1.02	0.982	0.938	0.911	0.971
W fixed	0.775	0.963	1.19	1.45	0.74	0.724	0.813	0.924	0.926
Y fixed	0.778	1.08	1.31	1.2	1.16	0.951	0.906	0.888	0.963
pThr fixed	0.381	0.299	0.315	0.372	0.448	0.996	1.2	0.999	0.991
pTyr fixed	0.3	0.61	0.58	0.345	0.571	1.16	1	0.776	0.916

GRK1, construct: Full length, human (from UniProt Q15835)
relative phosphorylation
Conditions	at +1	at +2	at +3	at +4	at -1	at -2	at -3	at -4	at -5
A fixed	0.624	1.06	0.886	1.02	0.737	0.553	0.76	1.15	1.16
D fixed	0.767	1.81	2.19	2.5	1.31	0.963	1.16	1.43	2.29
E fixed	2.89	1.47	2.19	2.42	1.39	1.28	1.19	1.75	1.74
F fixed	0.711	0.778	0.638	0.645	0.641	2.3	0.881	0.585	0.659
G fixed	0.605	0.939	1.68	1.06	0.652	0.519	0.912	1.29	2.07
H fixed	0.592	0.984	0.958	0.932	0.962	0.701	0.746	0.843	0.894
I fixed	1.47	0.921	0.682	0.734	0.654	0.86	0.841	0.627	0.556
K fixed	0.65	0.587	0.793	0.622	1.56	0.619	0.706	0.673	0.682
L fixed	1.23	0.823	0.662	0.653	0.852	1.02	0.583	0.568	0.491
M fixed	0.973	0.961	0.721	0.662	0.723	0.708	0.671	0.645	0.533
N fixed	0.621	1.3	0.861	0.861	1.23	0.691	1.07	0.933	0.983
P fixed	0.522	0.592	0.823	1.18	2.04	1.11	2.74	2.68	1.31
Q fixed	1.11	1.06	0.956	0.82	0.932	0.65	0.966	0.897	0.708
R fixed	0.605	0.682	0.633	0.544	0.993	1.02	1.07	0.813	0.678
V fixed	2.36	1.03	0.703	0.8	0.811	0.66	0.956	0.777	0.638
W fixed	0.575	0.917	0.874	0.841	0.566	0.74	0.62	0.673	0.799
Y fixed	0.701	1.1	0.754	0.707	0.953	2.61	1.13	0.662	0.81
pThr fixed	2.35	0.972	1.21	3.6	3.08	4.99	3.2	1.84	1.43
pTyr fixed	3.09	2.14	1.38	2.98	1.92	1.75	1.76	1.46	1.13

— the supplement of paper PMC9876800
